± gives the standard deviation of the averaged measurements. Where only a bound is given, the exact number is not on record here.

Results on 27 sequences are retold here after the supplement of paper PMC10201428.

Series [1] deals with VchCAST RNA-guided transposition machinery (E. coli BL21(DE3) host, lacZ target). Kind of series: relative integration efficiency (T-LR orientation) vs wild-type transposon end (log2 (normalized fold change)); transposon end mutated: left end; higher = more efficient transposition. Here is the method: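 Pooled, barcoded VchCAST (Tn6677) mini-transposon donor libraries; each variable transposon-end sequence sits in a fixed pDonor mini-transposon context (10-bp barcode and cargo not included). Left- or right-end libraries were co-transformed with pEffector (TniQ-Cascade, TnsABC, lacZ crRNA, T7, 0.1 mM IPTG) into E. coli BL21(DE3) and grown 18 h at 37 C. T-LR and T-RL junction amplicons were sequenced; output/input barcode fold change was normalised to the mean of four wild-type barcodes and log2-transformed. Two biological replicates; zero-count/undetected variants carry floor values (-10 / -15), censored here. Barcode uncoupling by PCR recombination adds noise.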

The test system is the same in series [2]. Kind of series: relative integration efficiency (T-RL orientation) vs wild-type transposon end (log2 (normalized fold change)); transposon end mutated: left end; higher = more efficient transposition. The procedure, abridged: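 Barcoded pools of 1549 left-end or 1849 right-end transposon variants were cloned into a pUC57 mini-transposon donor. Each pool was co-transformed with a T7-driven effector plasmid (CRISPR array, tniQ-cas8-cas7-cas6, tnsA-tnsB-tnsC) into E. coli BL21(DE3) and plated with 0.1 mM IPTG at 37°C for 18 h. Input plasmids and genomic integration junctions were PCR-amplified and Illumina-sequenced, with two biological output replicates and four wild-type barcodes as reference. Relative integration efficiency is output/input barcode abundance fold change, normalised to wild-type barcodes and log-transformed.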

Take “TTTTGTGTTGAAACAACCATAAAGTGATATTTACGAATCAATTAAAATCATAGGCTTAATCGAAAAACAACCATATCTTGATATCGCATAAAACAACCATAAGTTGATATTTTGGTGAAAAGGATATTCCAACCTTCATAGTTTAGTAAGAA”: the “relative integration efficiency (log2)” value in series [1] was -0.00585 ± 0.47; in series [2] it was 0.179 ± 0.12.

Take “AATGTTGTTGATGCAACCATAAAGTGATATTTAATAATTATCAACCATAAAGTGATATTTAACTTAACAACCATATATTGATATCTCACAAAACAACCATAAGTTGATATTTTTGTGAATCGAGTATTTCAGCAAAACTACTGCAGTAAGAA”: the “relative integration efficiency (log2)” value in series [1] is -4.24 ± 1.2; in series [2], -3.5 ± 0.95.

For “TTTTGTGTTGAAACAACCATAAAGTGATAACAACGAATCAATTAAAATCATAGGCTTAATCGAAAAACAACCATATCTTGATATCGCATAAAACAACCATAAGTTGATATTTTGGTGAAACGAGTATTTCAGCAAAACTACTGCAGTAAGAA”, the “relative integration efficiency (log2)” value is -1.04 ± 0.28 in series [1] and -0.949 ± 0.35 in series [2].

As to “AATGTTGTTGATGTCAACCATAAAGTGATATTTAATAATTATTTATAATCAGCAACTTAACCACAAAACAACCATATATTGATATCTCACAAAACAACCATAAGTTGATATTTTTGTGAATCGAGTATTTCAGCAAAACTACTGCAGTAAGA”, the “relative integration efficiency (log2)” value in series [1] was -0.718 ± 0.039; in series [2], -0.694 ± 0.2.

“AATGTTGTTGATGCAACCATAAAGTGATATTTAATAATTATTTATAATCAACCATATATTGATATCTCCAGCAACTTAACCACAAAAACAAAACAACCATAAGTTGATATTTTTGTGAATCGAGTATTTCAGCAAAACTACTGCAGTAAGAA”: the results for the “relative integration efficiency (log2)” value in series [1] and in series [2] were -2.65 ± 0.85 and -3 ± 0.78, respectively.

As to “TTTTGTGTTGAAACAACCATAAAGTGATAACAACGAATCAATTAAAATCATAGGCTTAATCGAAAAACAACCATATCTTGATATCGCATAAAACAACCATAAGTTGATATTTTGGTGAAAAGGATATTCCAACCTTCATAGTTTAGTAAGAA”, the “relative integration efficiency (log2)” value was -0.599 ± 0.63 in series [1] and -0.363 ± 0.32 in series [2].

As for “AATGTTGTTGATGCAACCATAAAGTGATATTTAATAATTATTTATAATCAGCAACTTAACCACAAAACAACCATATATTGATATCTCACAAAACAACCATAAGTGTCGCGGGGGTGTCCGATCTGATTTCAGCAAAACTACTGCAGTAAGAA”, the figures for the “relative integration efficiency (log2)” value in series [1] and in series [2] were -1.82 ± 0.77 and -2.05 ± 0.76, respectively.

Regarding “AATGTTGTTGATGCAACCATAAAGTGATATTTAATAATTATTTATAATCAGCAACTTAACCACAAAACAACCATATATTGATATAGACACCCCACCAACGCCTGGTCGCGGGGGTGTCCGATCTGATTTCAGCAAAACTACTGCAGTAAGAA”, the “relative integration efficiency (log2)” value was -1.07 ± 1.7 in series [1] and -2.48 ± 1.1 in series [2].

On to “AATGTTGTTGATGCAACCATAAAGTGATATTTAATAATTATTTATAATCAGCAACTCAACCATATATTGATATCTCACAAAACAACCATAAGTTGATATTTTTGTGAATCGAGTATTTCAGCAAAACTACTGCAGTAAGAAAGTTACTTCGT”, for which the “relative integration efficiency (log2)” value in series [1] was -3.27 ± 0.88; in series [2] it was -3.68 ± 1.1.

Take “AATGTTGTTGATGCAACCATAAAGTGATATTTAATAATTATTTATAATCAGCAACTTAACCACAAAACAAAACGCGCGGTCGCGAGACACCCCACCAACGCCTGGTCGCGGGGGTGTCCGATCTGATTTCAGCAAAACTACTGCAGTAAGAA”: the “relative integration efficiency (log2)” value is -3.29 ± 0.78 in series [1] and -6.07 ± 0.85 in series [2].

In the case of “AATGTTGTTGATGCAACACGCCCTGTCGCGGGCCGCCGGCGGGCGCCGACTACCAGGCCAACACCCCACCAACGCGCGGTCGCGAGACACCCCACCAACGCCTGGTCGCGGGGGTGTCCGATCTGATTTCAGCAAAACTACTGCAGTAAGAA”, the “relative integration efficiency (log2)” value in series [1] and in series [2] was below -10 in each case.

As for “AATGTTGTTGATGCAACCATAACTGTCGCGGGCCGCCGGCGGGCGCCGACTACCAGGCCAACACCCCACCAACGCGCGGTCGCGAGACACCCCACCAACGCCTGGTCGCGGGGGTGTCCGATCTGATTTCAGCAAAACTACTGCAGTAAGAA”, the “relative integration efficiency (log2)” value in series [1] and in series [2] was below -10 in each case.

For the sequence “AATGTTGTTGATGCAACCATAAAGTGATATTTAATAATTATTTATAATCAGCAACTTAACCACAAAACAACCATATATTGATATCTCACAAAACAACCATACTGGTCGCGGGGGTGTCCGATCTGATTTCAGCAAAACTACTGCAGTAAGAA”, the “relative integration efficiency (log2)” value is -0.966 ± 1.7 in series [1] and -2.24 ± 0.99 in series [2].

With “AATGTTGTTGATGCAACCATAAAGTGATATTTAATAATTATTTATAATCAGCAACTTAACCACAAAACAACCATAAGTTGATATTTTACAAAAGTTGGTATTCAACTATAAAATGTGAATCGAGTATTTCAGCAAAACTACTGCAGTAAGAA”, the results for the “relative integration efficiency (log2)” value in series [1] and in series [2] were -0.485 ± 0.68 and -2.49 ± 1.1, respectively.

As for “AATGTTGTTGATGCAACCATAAAGTGATATTTAACTCTCTTCTTTAGCAGTCTAGTCTATTGAAACTCAACCATATATTGATATCTCACAAAACAACCATAAGTTGATATTTTTGTGAATCGAGTATTTCAGCAAAACTACTGCAGTAAGAA”, the “relative integration efficiency (log2)” value is -5.31 ± 0.24 in series [1] and -3.73 ± 1.2 in series [2].

As for “AATGTTGTTGATGCAACCATAAAGTGATATTTAAATTGTGAGCGGATAACAATTCTTAACCACAAAACAACCATATATTGATATCTCACAAAACAACCATAAGTTGATATTTTTGTGAATCGAGTATTTCAGCAAAACTACTGCAGTAAGAA”, the entries for the “relative integration efficiency (log2)” value in series [1] and in series [2] were -3.23 ± 0.83 and -3.08 ± 0.73, respectively.

Take “AATGTTGTTGATGCAACCATAAAGTGATATTTAATAATTATTTATAATCAGCAACTTAACAACCATATATTGATATCTCCCACAAAAACAAAACAACCATAAGTTGATATTTTTGTGAATCGAGTATTTCAGCAAAACTACTGCAGTAAGAA”: the “relative integration efficiency (log2)” value was -3.54 ± 1.9 in series [1] and -1.81 ± 0.81 in series [2].

With “AATGTTGTTGATGTAATTATCATTTTATGGTTGATAATTATTTATAATCAGCAACTTAACCACAAAACAACCATAAAATGATAATTATTTTGTCAACCATAAAATGATAATTATGTGAATCGAGTATTTCAGCAAAACTACTGCAGTAAGAA”, the “relative integration efficiency (log2)” value is below -10 in series [1] and -8.78 ± 0.35 in series [2].

In the case of “AATGTTGTTGATGCAACCATAAAGTGATATTTAATAATTATTTATAATCAGCAACTTAACCACAAAACAACCATATATTGATATCTCACAAAACAACCCGCCTGGTCGCGGGGGTGTCCGATCTGATTTCAGCAAAACTACTGCAGTAAGAA”, the entries for the “relative integration efficiency (log2)” value in series [1] and in series [2] were -1.63 ± 2.3 and -2.27 ± 0.81, respectively.

In the case of “AATGTTGTTGATGCAACCATAAAGTGATATTTAATAATTATTTATAATCAGCAACTTAACCACAAAACAACCATATATTGATATCTCACAAAACAACCATCCTGGTCGCGGGGGTGTCCGATCTGATTTCAGCAAAACTACTGCAGTAAGAA”, the “relative integration efficiency (log2)” value is -0.61 ± 0.64 in series [1] and -1.99 ± 0.82 in series [2].

With “AATGTTGTTGATGCAACCATAAAGTGATATTTAATAATTATTTATAATCAGCAACTTAACCACAAAACAACCATATATTGATATCTCACCAACCATAAGTTGATATTTTTGTGAATCGAGTATTTCAGCAAAACTACTGCAGTAAGAAAGTT”, the “relative integration efficiency (log2)” value in series [1] is -2.01 ± 2.7; in series [2], -3.37 ± 0.94.

Consider “AATGTTGTTGATGCAACCATAAAGTGATATTTAATAATTATTTATAATCAGCAACTTAAAACACCCCACCAACGCGCGGTCGCGAGACACCCCACCAACGCCTGGTCGCGGGGGTGTCCGATCTGATTTCAGCAAAACTACTGCAGTAAGAA”, for which the entries for the “relative integration efficiency (log2)” value in series [1] and in series [2] were -3.63 ± 1.1 and -5.87 ± 1.1, respectively.

For the sequence “AATGTTGTTGATGCAACCATAAAGTGATATTTAATAATTATTTATAATCAGCAACTTCAACCATATATTGATATCTCAACCACAAAAACAAAACAACCATAAGTTGATATTTTTGTGAATCGAGTATTTCAGCAAAACTACTGCAGTAAGAA”, the “relative integration efficiency (log2)” value in series [1] is -2.92 ± 1.7; in series [2] it was -2.25 ± 0.7.

As to “AATGTTGTTGATGCAACCATAAAGTGATATTTAATAATTATTTATAATCAGCAACTTAACCACAAACAACCATATATTGATATCTCACAAAACAACCATAAGTTGATATTTTATGTGAATCGAGTATTTCAGCAAAACTACTGCAGTAAGAA”, the “relative integration efficiency (log2)” value in series [1] is -1.02 ± 0.3; in series [2], -0.754 ± 0.26.

On to “AATGTTGTTGATGCAACCATAAAGTGATATTTAATAACTTCGTATAGGATACTTTATACGAAGTTATCAACCATATATTGATATCTCACAAAACAACCATAAGTTGATATTTTTGTGAATCGAGTATTTCAGCAAAACTACTGCAGTAAGAA”, for which the “relative integration efficiency (log2)” value in series [1] is -3.99 ± 1.5; in series [2], -3.72 ± 1.3.

Consider “AATGTTGTTGATGCAACCATATATTGATATCTCATAATTATTTATAATCAGCAACTTAACCACAAAACAACCATAAAGTGATATTTAACAAAAGTTGGTATTCAACTATAAAATGTGAATCGAGTATTTCAGCAAAACTACTGCAGTAAGAA”, for which the “relative integration efficiency (log2)” value was -1.75 ± 1.5 in series [1] and -3.25 ± 1.2 in series [2].

As for “AATGTTGTTGATGTAATTATCATTTTATGGTTGATAATTATTTATAATCAGCAACTTAACCACAAAACAACCATAAAATGATAATTAACAAAATAATTATCATTTTATGGTTGTGTGAATCGAGTATTTCAGCAAAACTACTGCAGTAAGAA”, the “relative integration efficiency (log2)” value in series [1] was below -10; in series [2], -7.72 ± 0.59.
